The results in this text go back to patent publication US20200207829A1, “CHIMERIC RECEPTORS” (Oxford University Innovation Limited, priority 2017, published 2020).

Experiment in all cases: cell-based or functional assay
Experiment [1] concerns the target dCas9(N/C)-synBDKRB2.
The target in experiment [2] is TMt-NES-dCas9VP64.
Experiment [3] addresses TMt-dCas9(N/C)VP64.
The target of experiment [4] is dCas9(N/C)-synVEGFR1/2 (heterodimer of dCas9(N)-synVEGFR2 with TCS(QL) and dCas9(C)-synVEGFR1 with TCS(QG)).
Experiment [5] concerns the target dCas9(N/C)-synVEGFR1/2RI.
Experiment [6] has as its target VEGFR2:TEV(N)-NES-dCas9(N)/VEGFR1:TEV(C)-NLS-dCas9(C)VP64 heterodimer, both with TCS(QG).

Chain of VEGFA121 (P15692 other isoform, or with tags, fused parts or gaps limits assumed): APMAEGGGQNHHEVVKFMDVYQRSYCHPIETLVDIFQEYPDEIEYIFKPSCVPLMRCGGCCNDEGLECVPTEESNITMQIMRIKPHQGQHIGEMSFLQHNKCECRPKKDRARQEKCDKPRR

In experiment [1], “Bradykinin (from UniProt P01042 381-389) (peptide)” displayed a fold increase in EYFP output activation score (HTLA cells) of more than 900 fold and a half-maximal effective agonist concentration (EC50), EYFP reporter dose-response, 0.01 nM-10 µM bradykinin of 603 nM.

The substance “TEV protease (from UniProt P04517 2038-2273) (enzyme)” had a fold increase in reporter activation score upon TEV expression in experiment [2] of 35 fold. Besides, in experiment [3], the fold increase in output reporter activation score came to 234 fold.

In experiment [4], “VEGFA121 (from UniProt P15692 181-395) (ligand)” had an ASCL1 mRNA levels, RT-qPCR (FIG. 2F legend) of 50 fold; an ASCL1 mRNA levels, RT-qPCR, relative to the no-agonist condition of 48.3 fold; a TNFα mRNA, RT-qPCR, relative to no-agonist conditions of 18 fold; a TSP-1 mRNA, RT-qPCR, relative to no-agonist conditions of 16.2 fold. In experiment [4], the fold increase in EYFP activation score (FIG. 2D) was determined as 1180 fold and the fold increase in EYFP activation score (HEK-293T reporter assay) turned out to be 1000 fold. In addition, in experiment [5], the EYFP target gene induction with VEGFA121 and rapamycin together (AND gate, with FRB-VP64) is more than 90 fold. The EYFP activation score, VEGFA121-dependent ON/OFF fold differential (HEK-293T reporter assay) in experiment [6] amounted to 5.5 fold.
